US20250325468A1 (MEDYTOX, published 2025)

Molecular target: SNARE complex including SNAP-25, syntaxin and VAMP2 (endogenous, in PC12 cells) (rat (PC12 cells, derived from rats), UniProt P60881 1-206; P32851 1-288; P63045 2-116)
Experiment: cell-based or functional assay

Sequence of SNARE complex including SNAP-25, syntaxin and VAMP2 (endogenous, in PC12 cells) (P60881 whole entry, chain 1 of 3): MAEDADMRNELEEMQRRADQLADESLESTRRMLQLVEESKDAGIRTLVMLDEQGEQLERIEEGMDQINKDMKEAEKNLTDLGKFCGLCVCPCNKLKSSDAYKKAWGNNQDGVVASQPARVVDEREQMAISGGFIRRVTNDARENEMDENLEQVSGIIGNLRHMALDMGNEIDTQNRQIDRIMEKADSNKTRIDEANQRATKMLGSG
Sequence of SNARE complex including SNAP-25, syntaxin and VAMP2 (endogenous, in PC12 cells) (P32851 whole entry, chain 2 of 3): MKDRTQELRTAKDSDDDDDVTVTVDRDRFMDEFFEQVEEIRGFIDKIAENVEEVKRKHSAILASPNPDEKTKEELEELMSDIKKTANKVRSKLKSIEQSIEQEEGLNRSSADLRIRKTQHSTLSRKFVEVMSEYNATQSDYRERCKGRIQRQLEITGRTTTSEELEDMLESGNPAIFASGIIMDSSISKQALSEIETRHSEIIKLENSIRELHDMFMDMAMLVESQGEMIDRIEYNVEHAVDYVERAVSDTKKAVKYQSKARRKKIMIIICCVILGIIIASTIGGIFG
Sequence of SNARE complex including SNAP-25, syntaxin and VAMP2 (endogenous, in PC12 cells) (P63045 2-116, chain 3 of 3): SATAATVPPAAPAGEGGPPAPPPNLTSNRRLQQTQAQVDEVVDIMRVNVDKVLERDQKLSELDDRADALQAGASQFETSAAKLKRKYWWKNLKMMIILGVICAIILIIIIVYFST

neurotransmitter (norepinephrine) secretion rate in PC12 cells compared to an untreated group, peptide at 20 µM [%]	Binder
56	RRWRRWNRFNRRRCRRRLQQTQAQVDEVV
75	RRLQQTQAQVDEVVDIM [P4 peptide, h-VAMP2 (30-46 aa)]
